For experiment [1], the target named is recombinant homotrimeric HA, A/California/4/09 H1N1 (Influenza A virus A/California/4/09 …). Put plainly: trimeric HA microarray, transfection set 5.
In experiment [2] the target is recombinant homotrimeric HA, A/Solomon Islands/3/06 H1N1 (Influenza A virus A/Solomon …). Put plainly: trimeric HA microarray, transfection set 5.
For experiment [3], the target named is recombinant homotrimeric HA, A/South Carolina/1/18 H1N1 (Influenza A virus A/South Carolina/1/18 …). Put plainly: trimeric HA microarray, transfection set 5.
For experiment [4], the target named is recombinant homotrimeric HA, A/Japan/305/57 H2N2 (Influenza A virus A/Japan/305/57 (H2N2)). Put plainly: trimeric HA microarray, transfection set 5.
For experiment [5], the target named is recombinant homotrimeric HA, A/Wisconsin/67/05 H3N2 (Influenza A virus A/Wisconsin/67/05 …). Put plainly: trimeric HA microarray, transfection set 5.
Experiment [6] has as its target recombinant homotrimeric HA, A/swine/Ontario/01911-2/99 H4N6 (Influenza A virus …). Put plainly: trimeric HA microarray, transfection set 5.
The target of experiment [7] is recombinant homotrimeric HA, A/Vietnam/1203/04 H5N1 (Influenza A virus A/Vietnam/1203/04 …). Put plainly: trimeric HA microarray, transfection set 5.
Experiment [8] addresses recombinant homotrimeric HA, A/Indonesia/5/05 H5N1 (Influenza A virus A/Indonesia/5/05 …). Put plainly: trimeric HA microarray, transfection set 5.
Experiment [9] deals with hemagglutinin (HA) on live influenza A virus A/Solomon Islands/3/06 H1N1 (Influenza A virus A/Solomon …). Put plainly: cell-based or functional assay.
Experiment [10] addresses hemagglutinin (HA) on live influenza A virus A/California/4/09 H1N1 (Influenza A virus A/California/04/2009 …). Put plainly: cell-based or functional assay.
Experiment [11] deals with hemagglutinin (HA) on live influenza A virus A/Wisconsin/67/05 H3N2 (Influenza A virus A/Wisconsin/67/2005 …). Put plainly: cell-based or functional assay.
Experiment [12] deals with T1, M2 protein of A/Puerto Rico/8/34 (H1N1), on virus particles, infected MDCK cells or transfected cells (influenza A virus A/Puerto Rico/8/34 …, UniProt P06821 1-97).
T1 construct: whole, on cells
Put plainly: ELISA on purified A/Puerto Rico/8/34 virus (FIG. 14a).

B1: TCN-560 (5084_P10) (antibody, V domains shown)
VH: EVQLVESGGGLVQPGGSLRLSCAASGFIFRNYWMSWVRQAPGKGLEWVANIKQDGREKYYVDSLRGRVNISRDNAENSLYLHMNSLRVEDTAVYFCARARMVVVTGDGFDVWGHGTMVTVSS
VL: DIQMTQSPSSLSASVGDRVTITCRASQNIKRYFNWYQQKPGKAPKLLIYAASNLENGVPSRFSGSGSGTDFTLTISSLQPEDFATYYCQQSFSKSWTFGQGTNVDIK
With B1, the “Trimeric HA Binding RLU” value in experiment [1] turned out to be 31100 RLU; in experiment [2], 22400 RLU; in experiment [3] it was 30500 RLU; in experiment [4], 25900 RLU; in experiment [5] it was 55400 RLU; in experiment [6], 16800 RLU. In addition, the “Trimeric HA Binding RLU” value in [7] was determined as 19500 RLU; in experiment [8] it was 17000 RLU.

B2: TCN-546 (5089_L08) (antibody, V domains shown)
VH: QVQLQQWGAGLLKPSETLSLTCGVYGGSLSDYYWSWIRQPPGKGLEWIGEINHSGGTNYNPSLKRRVTISVDTSKKQFSLKMNSVTAADTAVYYCARGTDPDTEVYCRAGNCAAFDFWGQGTLVTVSS
VL: EIVLTQSPGTLSLSPGERATLSCRASHFVIGRAVAWYQQKPGQAPRLLIYGASSRATGIPDRFSGSGSGTDFTLTISRLETEDFAVFYCQHYGSSPRYAFGQGTKLEIK
As to B2, the “% Neutralization” value was 98% in [9], 0% in experiment [10] and 100% in [11].

B3: TCN-032 (8I10) (antibody, V domains shown)
VH: QVQLQESGPGLVKPSETLSLTCTVSGSSISNYYWSWIRQSPGKGLEWIGFIYYGGNTKYNPSLKSRVTISQDTSKSQVSLTMSSVTAAESAVYFCARASCSGGYCILDYWGQGTLVTVSS
VL: DIQMTQSPSSLSASVGDRVTITCRASQNIYKYLNWYQQRPGKAPKGLISAASGLQSGVPSRFSGSGSGTDFTLTITSLQPEDFATYYCQQSYSPPLTFGGGTRVEIK
B3 had an EC50 in experiment [12] of approximately 0.1 µg/mL.

B4: TCN-556 (5089_K12) (antibody, V domains shown)
VH: QVQLVQSGAEVKKPGASVKVSCKASGYTFIGYDMHWVRQAPGQGLEWMGWINAKRGGTNYAQKFQGRVTMTRDTSISTAYMELNSLRSDDTAVYYCARGVGSRTTIFGVLNPEFDYWGQGTLVTVSS
VL: QSALTQPPSASGSPGQSVTISCTGSSSDVGGYDYVSWYQQHPGKAPKLLIYEVTKRPSGVPDRFSGSKSGNTASLTVSGLQAEDEADYYCSSYAGNYNHVFGPGTKVTVL
B4: the “Trimeric HA Binding RLU” value stood at 20900 RLU in experiment [1]; 23400 RLU in [2]; 32700 RLU in [3]; 22800 RLU in experiment [4]; 44700 RLU in experiment [5]; 19300 RLU in [6]. In addition, the “Trimeric HA Binding RLU” value stood at 17400 RLU in experiment [7] and 15200 RLU in experiment [8].

B5: TCN-031 (23K12) (antibody, V domains shown)
VH: EVQLVESGGGLVQPGGSLRISCAASGFTVSSNYMSWVRQAPGKGLEWVSVIYSGGSTYYADSVKGRFSFSRDNSKNTVFLQMNSLRAEDTAVYYCARCLSRMRGYGLDVWGQGTTVTVSS
VL: DIQMTQSPSSLSASVGDRVTITCRTSQSISSYLNWYQQKPGKAPKLLIYAASSLQSGVPSRFSGSGSGTDFTLTISGLQPEDFATYYCQQSYSMPAFGQGTKLEIK
As for B5, the EC50 in [12] is approximately 0.1 µg/mL.

The values above are taken from US20120207760A1 (THERACLONE SCIENCES, published 2012).
